# Test results as given in publication PMC6450523, “Substrate-analogue complex structure of Mycobacterium tuberculosis decaprenyl diphosphate synthase” (Acta Crystallographica. Section F, Structural Biology …, 2019).
# B1: Decaprenyl diphosphate synthase from Mycobacterium tuberculosis (enzyme)
# chain: MARDARKRTSSNFPQLPPAPDDYPTFPDTSTWPVVFPELPAAPYGGPCRPPQHTSKAAAPRIPADRLPNHVAIVMDGNGRWATQRGLARTEGHKMGEAVVIDIACGAIELGIKWLSLYAFSTENWKRSPEEVRFLMGFNRDVVRRRRDTLKKLGVRIRWVGSRPRLWRSVINELAVAEEMTKSNDVITINYCVNYGGRTEITEATREIAREVAAGRLNPERITESTIARHLQRPDIPDVDLFLRTSGEQRSSNFMLWQAAYAEYIFQDKLWPDYDRRDLWAACEEYASRTRRFGSA
# notes: also called MtDPPS; Rv2361c
# Biological target: the molecule itself
# Test: crystal structure; sitting-drop vapour diffusion at 25°C, 0.1 M HEPES pH 7.5, 10% glycerol, 25% PEG 400, 7% PEG 3000; crystals soaked with 1 mM ISPP and 1 mM GSPP for 6 h; 1.55 Å, space group P212121, one dimer in the asymmetric unit
protein,measurement,value
B1,stoichiometry N,2
